Test results taken from publication PMC2819549.
Like-named read-outs stand apart in the source and are kept apart here.

Experiments:
[1] = target: human cytochrome P450 3A4 (CYP3A4), wild type, His-tagged (human) (UniProt P08684)
[2] = target: human cytochrome P450 3A4 (CYP3A4), wild type, His-tagged (human) (UniProt P08684); test: UV-Vis absorbance
[3] = target: human cytochrome P450 3A4 (CYP3A4), wild type, His-tagged (human) (UniProt P08684); test: UV-Vis absorbance; remark: listed apart in the source
[4] = target: human cytochrome P450 3A4 (CYP3A4), wild type, His-tagged (human) (UniProt P08684); test: UV-Vis absorbance; remark: listed apart in the source

total reducibility of CYP3A4 by BMR; CYP3A4-ND, with 1-PB [1]: 91% | total reducibility of CYP3A4 by BMR; CYP3A4-ND, with ANF [1]: 79% | total reducibility of CYP3A4 by BMR; proteoliposomes LPS-76, no substrate [1]: 55% | total reducibility of CYP3A4 by BMR; proteoliposomes LPS-76, with ANF [1]: 47% | total reducibility of CYP3A4 by BMR; proteoliposomes LPS-910, no substrate [1]: 83% | total reducibility of CYP3A4 by BMR; proteoliposomes LPS-910, with ANF [1]: 85% | Kd [2]: 100 nM | stoichiometry N [3]: 1 | Kd [4]: 140 nM | stoichiometry N [4]: 1
Substance: flavin domain of cytochrome P450BM-3 from Bacillus megaterium (BMR) (domain or fragment)
